B1: B4ECv3: soluble extracellular domain derivative of human EphB4, SEQ ID NO:1 (protein)
chain: MELRVLLCWASLAAALEETLLNTKLETADLKWVTFPQVDGQWEELSGLDEEQHSVRTYEVCEVQRAPGQAHWLRTGWVPRRGAVHVYATLRFTMLECLSLPRAGRSCKETFTVFYYESDADTATALTPAWMENPYIKVDTVAAEHLTRKRPGAEATGKVNVKTLRLGPLSKAGFYLAFQDQGACMALLSLHLFYKKCAQLTVNLTRFPETVPRELVVPVAGSCVVDAVPAPGPSPSLYCREDGQWAEQPVTGCSCAPGFEAAEGNTKCRACAQGTFKPLSGEGSCQPCPANSHSNTIGSAVCQCRVGYFRARTDPRGAPCTTPPSAPRSVVSRLNGSSLHLEWSAPLESGGREDLTYALRCRECRPGGSCAPCGGDLTFDPGPRDLVEPWVVVRGLRPDFTYTFEVTALNGVSSLATGPVPFEPVNVTTDREVPPAVSDIRVTRSSPSSLSLAWAVPRAPSGAWLDYEVKYHEKGAEGPSSVRFLKTSENRAELRGLKRGASYLVQVRARSEAGYGPFGQEHHSQTQLDESEGWREQGSKRAILQIEGKPIPNPLLGLDSTRTGHHHHHH
modifications: Recombinant B4ECv3 protein
B2: soluble EphB4: soluble EphB4 extracellular domain protein; exact construct not stated at the results (protein)
chain: LEETLLNTKLETADLKWVTFPQVDGQWEELSGLDEEQHSVRTYEVCDVQRAPGQAHWLRTGWVPRRGAVHVYATLRFTMLECLSLPRAGRSCKETFTVFYYESDADTATALTPAWMENPYIKVDTVAAEHLTRKRPGAEATGKVNVKTLRLGPLSKAGFYLAFQDQGACMALLSLHLFYKKCAQLTVNLTRFPETVPRELVVPVAGSCVVDAVPAPGPSPSLYCREDGQWAEQPVTGCSCAPGFEAAEGNTKCRACAQGTFKPLSGEGSCQPCPANSHSNTIGSAVCQCRVGYFRARTDPRGAPCTTPPSAPRSVVSRLNGSSLHLEWSAPLESGGREDLTYALRCRECRPGGSCAPCGGDLTFDPGPRDLVEPWVVVRGLRPDFTYTFEVTALNGVSSLATGPVPFEPVNVTTDREVPPAVSDIRVTRSSPSSLSLAWAVPRAPSGAVLDYEVKYHEKGAEGPSSVRFLKTSENRAELRGLKRGASYLVQVRARSEAGYGPFGQEHHSQTQLDESEGWREQLA

What was measured:
[1] = system: human endothelial cells; experiment: Endothelial cell chemotaxis / migration (Boyden chamber); format: cell-based; settings: for chemotaxis of human endothelial cells: umbilical cord and hepatic AECs or VECs, growth factor stimuli
Protocol: Migration is assessed using the 48-well Boyden chamber and 8 μm pore size collagen-coated (10 μg/ml rat tail collagen; Collaborative Laboratories) polycarbonate filters (Osmonics, Inc.). The bottom chamber wells receive 27-29 μl of DMEM medium alone (baseline) or medium containing chemo-attractant (bFGF, VEGF or Swiss 3T3 cell conditioned medium). The top chambers receive 45 μl of HUVEC cell suspension (1×10^6 cells/ml) prepared in DMEM+1% BSA with or without test compound. After 5 h incubation at 37° C., the membrane is rinsed in PBS, fixed and stained in Diff-Quick solutions. The filter is placed on a glass slide with the migrated cells facing down and cells on top are removed using a Kimwipe. The testing is performed in 4-6 replicates and five fields are counted from each well. Negative unstimulated control values are subtracted from stimulated control and drug treated values and data is plotted as mean migrated cell±S.D. IC50 is calculated from the plotted data.
Chemotaxis of HUVECs to VEGF was assessed using a modified Boyden chamber, transwell membrane filter inserts in 24 well plates, 6.5 mm diam, 8 μm pore size, 10 μm thick matrigel coated, polycarbonate membranes (BD Biosciences). The cell suspensions of HUVECs (2×10^5 cells/ml) in 200 μl of EBM were seeded in the upper chamber and the soluble EphB4 protein were added simultaneously with stimulant (VEGF or bFGF) to the lower compartment of the chamber and their migration across a polycarbonate filter in response to 10-20 ng/ml of VEGF with or without 100 nM-1 μM test compound was investigated. After incubation for 4-24 h at 37° C., the upper surface of the filter was scraped with swab and filters were fixed and stained with Diff Quick. Ten random fields at 200× mag were counted and the results expressed as mean # per field. Negative unstimulated control values were subtracted from stimulated control and protein treated sample values and the data was plotted as mean migrated cell±S.D. IC50 was calculated from the plotted data.

[2] = system: B16 (melanoma); experiment: B16 melanoma tumor in mice, soluble EphB4; format: in vivo, mouse
Protocol: (§1) Tumors were injected premixed with Matrigel plus growth factors and soluble EphB4 subcutaneously. After 10 to 14 days, the mice were injected intravenously with FITC-lectin (green) to assess blood vessel perfusion.
30 athymic nude mice, BALB/c (nu/nu), were each injected with 1×10^6 B16 melanoma cells with 0.1 ml PBS mixed with 0.1 ml matrigel or 1.5×10^6 SCC15 cells resuspended in 200 μl of DMEM serum-free medium and injected subcutaneously on day 0 on the right shoulder region of mice. Proteins were injected intravenously or subcutaneously, around the tumor beginning on day 1 at a loading dose of 4 μg/mg, with weekly injections of 2 ug/mg. (10 μg/g, 50 μg/kg/day), and at 2 weeks post-inoculation. Mice are sacrificed on Day 14. Control mice received PBS 50 μl each day.

[3] = system: vascularization of Matrigel plugs; experiment: Murine Matrigel plug angiogenesis assay; format: in vivo, mouse; settings: for infiltration / invasion of cells into Matrigel plugs: plugs with growth factors; for vascularization of Matrigel plugs / in vivo angiogenesis: plugs with bFGF and VEGF, s.c., mice
Protocol: Cord formation assay of HUVEC in Matrigel™ (upper row). Cells in exponential growth phase were treated overnight with the indicated concentrations of EphB4 extracellular domain (ECD) prior to plating on Matrigel™. Cells were trypsinized and plated (1×10^5 cells/well) in a 24-well plate containing 0.5 ml Matrigel™. Shown are representative 20× phase contrast fields of cord formation after 8 hr plating on Matrigel™ in the continued presence of the test compounds as shown. Original magnification 200×. KS-SLK cells treated in a similar manner (middle row) in a cord formation assay on Matrigel™. […] After 7 days the plugs were removed, sectioned and stained with H&E to visualize cells migrating into the matrix.
Matrigel supplemented with bFGF and VEGF with and without soluble EphB4 was injected s.c. into Balb/C nu/nu mice, forming semi-solid plugs, for six days. Plugs without growth factors had virtually no vascularization or vessel structures after 6 days (FIG. 21). In contrast, plugs supplemented with bFGF and VEGF had extensive vascularization and vessels throughout the plug.
In vivo angiogenesis was assayed in mice as growth of blood vessels from subcutaneous tissue into a Matrigel plug containing the test sample. Matrigel rapidly forms a solid gel at body temperature, trapping the factors to allow slow release and prolonged exposure to surrounding tissues. Matrigel (8.13 mg/ml, 0.5 ml) in liquid form at 4° C. was mixed with Endothelial Cell Growth Supplement (ECGS), test proteins plus ECGS or Matrigel plus vehicle alone (PBS containing 0.25% BSA). Matrigel (0.5 ml) was injected into the abdominal subcutaneous tissue of female nu/nu mice (6 wks old) along the peritoneal mid line. There were 3 mice in each group. The animals were cared for in accordance with institutional and NIH guidelines. At day 6, mice were sacrificed and plugs were recovered and processed for histology. Typically the overlying skin was removed, and gels were cut out by retaining the peritoneal lining for support, fixed in 10% buffered formalin in PBS and embedded in paraffin. Sections of 3 μm were cut and stained with H&E or Masson's trichrome stain and examined under light microscope

[4] = system: bFGF-induced corneal neovascularization; experiment: Mouse corneal micropocket assay; format: in vivo; settings: mouse cornea, day 7 of implantation
Excerpt: To further investigate the antiangiogenic activity of soluble EphB4 in vivo, we studied the inhibitory effect of administration of soluble EphB4 on neovascularization in the mouse cornea induced by bFGF. Hydron Pellets implanted into corneal micropocket could induce angiogenesis, in the presence of growth factors, in a typically avascular area. The angiogenesis response in mice cornea was moderate, the appearance of vascular buds was delayed and the new capillaries were sparse and grew slowly.
Mouse corneal micropocket assay was performed according to that detailed by Kenyon et al., 1996. Briefly, hydron pellets (polyhydroxyethylmethacrylate [polyHEMA], Interferon Sciences, New Brunswick, N.J., U.S.A.) containing either 90 ng of bFGF (R&D) or 180 ng of VEGF (R&D Systems, Minneapolis, Minn., U.S.A.) and 40 μg of sucrose aluminium sulfate (Sigma) were prepared. Using an operating microscope, a stromal linear keratotomy was made with a surgical blade (Bard-Parker no. 15) parallel to the insertion of the lateral rectus muscle in an anesthetized animal. An intrastromal micropocket was dissected using a modified von Graefe knife (2^••30 mm). […] The difference in pellet location for each growth factor was determined to be necessary given the relatively weaker angiogenic stimulation of VEGF in this model. […]

[5] = system: MCF-7 (breast carcinoma); experiment: MCF-7 tumor in mice, soluble EphB4; format: in vivo, mouse
Protocol: as §1

Molecule	chemotaxis of human endothelial cells [1]	chemotaxis of human endothelial cells ([1]; listed as EphB4v3)	in vivo tumor growth ([2]; B16 co-injected with matrigel and growth factors)	infiltration / invasion of cells into Matrigel plugs [3]	corneal neovascularization induced by bFGF [4]	in vivo tumor growth ([5]; MCF-7 co-injected with matrigel and growth factors)	bFGF and VEGF-induced migration ([1]; HUV/AEC, Boyden chamber, dose-dependent)	tumor angiogenesis ([2]; B16, premixed with Matrigel plus growth factors, 10 to 14 days)	vascularization of Matrigel plugs / in vivo angiogenesis [3]	vascularization of Matrigel plugs / in vivo angiogenesis ([3]; listed as EphB4-ECD)	infiltration / invasion of cells into Matrigel plugs ([3]; listed as EphB4 ECD)	tumor angiogenesis ([5]; MCF-7, premixed with Matrigel plus growth factors, 10 to 14 days)
B1	blocked chemotaxis	inhibits chemotaxis	inhibits	inhibits invasion	inhibits	inhibits	–	–	–	–	–	–
B2	–	–	–	significantly inhibited	markedly inhibited	–	significantly inhibited	marked inhibition	markedly reduced	inhibits	almost completely inhibited	marked inhibition

— patent US9533026B2, “Polypeptide compounds for inhibiting angiogenesis and tumor growth” (VasGene Therapeutics, Inc., priority 2004, dated 2017)
